Results taken from patent US20220056094A1 (JIANGSU HENGRUI MEDICINE, published 2022).
Where two headings read alike, the source gives them in different places.

T1: high-affinity receptor IL-2Rα/β/γ on CTLL2 cells (mouse-derived cell line) (mouse, UniProt P01590 22-268; P16297 27-539; P34902 23-369)
T1 sequence (looked up) 1: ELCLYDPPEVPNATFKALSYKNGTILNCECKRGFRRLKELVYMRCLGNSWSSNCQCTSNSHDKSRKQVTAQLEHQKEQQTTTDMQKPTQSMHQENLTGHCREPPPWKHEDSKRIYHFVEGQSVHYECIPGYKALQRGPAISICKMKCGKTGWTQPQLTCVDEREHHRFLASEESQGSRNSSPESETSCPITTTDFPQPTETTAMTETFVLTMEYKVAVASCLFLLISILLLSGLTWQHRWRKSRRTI
T1 sequence (looked up) 2: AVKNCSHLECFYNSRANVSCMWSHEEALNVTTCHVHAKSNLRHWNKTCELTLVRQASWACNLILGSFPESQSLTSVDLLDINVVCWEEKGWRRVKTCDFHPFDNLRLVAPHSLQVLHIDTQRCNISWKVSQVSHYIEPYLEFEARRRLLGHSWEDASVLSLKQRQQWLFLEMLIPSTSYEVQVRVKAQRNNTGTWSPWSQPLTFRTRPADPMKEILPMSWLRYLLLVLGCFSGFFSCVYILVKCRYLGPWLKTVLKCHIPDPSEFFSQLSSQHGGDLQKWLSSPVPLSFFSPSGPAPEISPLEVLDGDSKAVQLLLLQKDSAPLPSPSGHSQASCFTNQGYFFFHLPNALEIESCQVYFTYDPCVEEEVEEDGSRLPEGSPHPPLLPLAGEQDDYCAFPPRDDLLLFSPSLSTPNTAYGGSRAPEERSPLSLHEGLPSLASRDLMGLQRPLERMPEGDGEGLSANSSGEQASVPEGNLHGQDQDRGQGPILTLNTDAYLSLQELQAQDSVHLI
T1 sequence (looked up) 3: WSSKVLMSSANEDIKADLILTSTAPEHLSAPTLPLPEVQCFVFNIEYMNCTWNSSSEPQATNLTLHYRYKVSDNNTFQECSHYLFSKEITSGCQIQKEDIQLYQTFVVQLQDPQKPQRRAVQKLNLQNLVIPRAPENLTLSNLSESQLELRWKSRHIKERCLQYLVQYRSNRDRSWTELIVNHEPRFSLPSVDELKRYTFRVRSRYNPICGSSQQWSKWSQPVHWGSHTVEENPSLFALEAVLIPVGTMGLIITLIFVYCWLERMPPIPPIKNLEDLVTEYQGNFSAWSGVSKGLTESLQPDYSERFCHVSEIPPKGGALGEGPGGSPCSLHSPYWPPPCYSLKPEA

T2: medium-affinity receptor IL-2Rβ/γ on human cells (Mo7e cell line; human CD8+T and NK cells) (human, UniProt P14784 27-551; P31785 23-369)
T2 sequence (looked up) 1: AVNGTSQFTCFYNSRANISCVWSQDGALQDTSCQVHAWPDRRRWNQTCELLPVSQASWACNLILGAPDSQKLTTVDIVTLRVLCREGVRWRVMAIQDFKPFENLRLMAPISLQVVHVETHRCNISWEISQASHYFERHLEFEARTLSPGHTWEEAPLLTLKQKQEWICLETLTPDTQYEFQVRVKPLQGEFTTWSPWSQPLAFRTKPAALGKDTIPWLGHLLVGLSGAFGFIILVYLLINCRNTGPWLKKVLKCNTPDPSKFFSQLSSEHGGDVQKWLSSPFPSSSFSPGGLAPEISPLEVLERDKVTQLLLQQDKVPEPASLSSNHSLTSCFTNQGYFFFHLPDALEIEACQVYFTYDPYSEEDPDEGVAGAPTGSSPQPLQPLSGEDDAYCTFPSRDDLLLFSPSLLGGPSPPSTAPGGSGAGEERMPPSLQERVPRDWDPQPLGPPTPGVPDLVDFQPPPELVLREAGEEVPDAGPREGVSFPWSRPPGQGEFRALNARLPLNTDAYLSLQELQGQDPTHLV
T2 sequence (looked up) 2: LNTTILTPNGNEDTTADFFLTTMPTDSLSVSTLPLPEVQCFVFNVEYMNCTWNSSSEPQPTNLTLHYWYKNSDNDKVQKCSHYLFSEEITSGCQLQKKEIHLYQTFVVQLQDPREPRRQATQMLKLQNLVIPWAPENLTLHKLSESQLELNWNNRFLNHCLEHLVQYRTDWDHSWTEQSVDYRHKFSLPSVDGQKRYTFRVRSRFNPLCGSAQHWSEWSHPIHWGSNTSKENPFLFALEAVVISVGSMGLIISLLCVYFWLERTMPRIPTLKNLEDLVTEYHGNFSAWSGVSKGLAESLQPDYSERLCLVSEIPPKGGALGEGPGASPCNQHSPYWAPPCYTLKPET

T3: his-tagged human IL-2Rα recombinant protein (SinoBiological, Cat #10165-H08H) (human, UniProt P01589 22-213)
T3 construct: Bought protein; also called IL-2Rα (His Tag)
T3 sequence: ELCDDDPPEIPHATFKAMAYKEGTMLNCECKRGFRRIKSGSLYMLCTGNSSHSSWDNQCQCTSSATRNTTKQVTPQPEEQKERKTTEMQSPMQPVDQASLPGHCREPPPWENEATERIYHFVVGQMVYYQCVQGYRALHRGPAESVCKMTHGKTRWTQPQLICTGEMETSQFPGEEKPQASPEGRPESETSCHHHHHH


Assays:
[1] = biological target: T4, IL-2Rβ/γ-Fc heterodimer (IL-2Rβ-Fc-hole with IL-2Rγ-Fc-knob); test: SPR (Biacore), IL-2Rβ/γ-Fc captured on Protein A chip, 1:1 model
T4 construct: Co-expressed in HEK293 cells and purified with Protein A and Superdex 200
T4 sequence (chain, as listed by the source limits assumed, chain 1 of 2): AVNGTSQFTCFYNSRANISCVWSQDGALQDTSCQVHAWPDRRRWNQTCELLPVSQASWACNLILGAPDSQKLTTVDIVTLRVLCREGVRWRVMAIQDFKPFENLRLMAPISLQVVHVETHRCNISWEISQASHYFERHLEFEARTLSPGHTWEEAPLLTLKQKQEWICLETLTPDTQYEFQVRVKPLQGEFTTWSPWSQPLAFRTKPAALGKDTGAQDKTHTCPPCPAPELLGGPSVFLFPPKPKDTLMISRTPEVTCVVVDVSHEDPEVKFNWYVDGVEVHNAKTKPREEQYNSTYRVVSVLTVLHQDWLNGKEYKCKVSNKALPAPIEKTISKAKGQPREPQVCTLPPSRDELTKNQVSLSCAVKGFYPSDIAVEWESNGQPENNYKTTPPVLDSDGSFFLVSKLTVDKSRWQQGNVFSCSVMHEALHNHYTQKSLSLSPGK
T4 sequence (chain, as listed by the source limits assumed, chain 2 of 2): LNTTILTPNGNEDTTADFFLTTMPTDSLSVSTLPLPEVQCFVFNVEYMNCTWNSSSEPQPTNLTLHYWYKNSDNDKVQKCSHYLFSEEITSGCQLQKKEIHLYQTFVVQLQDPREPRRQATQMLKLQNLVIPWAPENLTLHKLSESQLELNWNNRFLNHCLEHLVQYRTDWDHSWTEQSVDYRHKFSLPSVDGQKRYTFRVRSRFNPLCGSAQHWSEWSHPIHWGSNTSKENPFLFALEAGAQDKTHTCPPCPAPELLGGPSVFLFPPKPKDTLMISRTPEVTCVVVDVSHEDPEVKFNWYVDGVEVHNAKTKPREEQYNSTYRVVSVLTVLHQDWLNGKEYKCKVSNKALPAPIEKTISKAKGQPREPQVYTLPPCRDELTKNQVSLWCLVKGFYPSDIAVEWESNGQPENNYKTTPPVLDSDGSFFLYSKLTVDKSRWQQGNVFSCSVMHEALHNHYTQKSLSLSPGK
Procedure: The Protein A sensor chip (GE, Cat #29127556) of the Biacore instrument (Biacore T200, GE) was used to capture IL-2Rβ/γ-Fc, wherein IL-2Rβ/γ-Fc was diluted with 1×HBS-EP to 1 μg/mL, and flowed at a flow rate of 10 μL/min for 30 seconds. […] The Biacore instrument (Biacore X100, GE) was used to detect the reaction in real time, to obtain association and dissociation curves. After each cycle of dissociation was completed, the chip was washed and regenerated with 10 mM Gly-HCl pH 1.5.

[2] = biological target: T1, high-affinity receptor IL-2Rα/β/γ on …; test: cell-based or functional assay
[3] = biological target: T1, high-affinity receptor IL-2Rα/β/γ on …; test: cell-based or functional assay; remark: listed apart in the source
[4] = biological target: T2, medium-affinity receptor IL-2Rβ/γ on …; test: cell-based or functional assay
[5] = biological target: T1, high-affinity receptor IL-2Rα/β/γ on …; test: cell-based or functional assay; remark: listed apart in the source
[6] = biological target: T3, his-tagged human IL-2Rα recombinant …; test: ELISA, his-tagged IL-2Rα coated, HRP anti-IL-2 polyclonal detection
Procedure: 96-well microtiter plate was coated with 2 μg/mL his-tagged IL-2Rα recombinant protein (SinoBiological, Cat #10165-H08H), and incubated overnight at 4° C. The plate was washed with washing solution for three times, 250 μl per well. For each time of washing, the plate was shaken for 10 seconds to ensure sufficient washing. 200 μl/well blocking solution was added and incubated at room temperature for 2 hours. The plate was washed with washing solution for three times, 250 μl per well. For each time of washing, the plate was shaken for 10 seconds to ensure sufficient washing. […] The plate was incubated for 1 hour at room temperature. The plate was washed with washing solution for three times, 250 μl per well. […] The plate was incubated for 1 hour at room temperature. The plate was washed with washing solution for three times, 250 μl per well. 100 μl TMB was added to each well, and the reaction was performed for 15 minutes in the dark. 50 μl of 0.16 M sulfuric acid was added to each well.

Kd [1]	koff [1]	kon [1]	EC50 (STAT5 phosphorylation in CTLL2 cells) [2]	relative biological activity (STAT5 phosphorylation in CTLL2 cells) [2]	relative biological activity (CTLL2 cell proliferation) [3]	EC50 (Mo7e cell proliferation) [4]	relative biological activity (Mo7e cell proliferation) [4]	EC50 (CTLL2 cell proliferation) [5]	relative biological activity (CTLL2 cell proliferation) [5]	EC50 [6]	Binder
0.224 nM	0.000206 s⁻¹	920000 M⁻¹ s⁻¹	3.93 nM	0.25%	7%	–	–	–	–	–	IL-2-08 (F42A/L72G) (ligand, The entry already carries the mutations and C125A and begins with M. Made in E. coli) MAPTSSSTKKTQLQLEHLLLDLQMILNGINNYKNPKLTRMLTAKFYMPKKATELKHLQCLEEELKPLEEVLNGAQSKNFHLRPRDLISNINVIVLELKGSETTFMCEYADETATIVEFLNRWITFAQSIISTLT
0.344 nM	0.000222 s⁻¹	646000 M⁻¹ s⁻¹	4.02 nM	0.25%	2%	–	–	–	–	–	IL-2-09 (Y45A/L72G) (ligand, The entry already carries the mutations and C125A and begins with M. Made in E. coli) MAPTSSSTKKTQLQLEHLLLDLQMILNGINNYKNPKLTRMLTFKFAMPKKATELKHLQCLEEELKPLEEVLNGAQSKNFHLRPRDLISNINVIVLELKGSETTFMCEYADETATIVEFLNRWITFAQSIISTLT
0.261 nM	0.000215 s⁻¹	822000 M⁻¹ s⁻¹	2.45 nM	0.41%	4%	–	–	–	–	–	IL-2-07 (F42A/Y45A) (ligand, The entry already carries the mutations and C125A and begins with M. Made in E. coli) MAPTSSSTKKTQLQLEHLLLDLQMILNGINNYKNPKLTRMLTAKFAMPKKATELKHLQCLEEELKPLEEVLNLAQSKNFHLRPRDLISNINVIVLELKGSETTFMCEYADETATIVEFLNRWITFAQSIISTLT
0.266 nM	0.00043 s⁻¹	1.62e+06 M⁻¹ s⁻¹	–	–	–	1.78 nM	137%	4.8 nM	1%	–	IL-2-10 (N26Q/N30S/F42A/L72G) (ligand, The entry already carries the mutations and C125A and begins with M. Made in E. coli) MAPTSSSTKKTQLQLEHLLLDLQMILQGINSYKNPKLTRMLTAKFYMPKKATELKHLQCLEEELKPLEEVLNGAQSKNFHLRPRDLISNINVIVLELKGSETTFMCEYADETATIVEFLNRWITFAQSIISTLT
0.302 nM	0.00015 s⁻¹	498000 M⁻¹ s⁻¹	–	–	176%	–	–	–	–	0.87 nM	IL-2-04 (L70C/P82C) (ligand, The entry already carries the mutations and C125A and begins with M. Made in E. coli) MAPTSSSTKKTQLQLEHLLLDLQMILNGINNYKNPKLTRMLTFKFYMPKKATELKHLQCLEEELKPLEEVCNLAQSKNFHLRCRDLISNINVIVLELKGSETTFMCEYADETATIVEFLNRWITFAQSIISTLT
